Test [1] has as its target IFN-α (subtype not stated; antigen of the ELISA, BIAcore and Kinexa assays of Example 2) (human). As to the kind of experiment: ELISA, IFN-α coated at 0.1 µg/ml, F(ab) at 10 µg/ml; SD 0.06, N 3.
The target is the same in test [2]. As to the kind of experiment: ELISA, IFN-α coated at 0.1 µg/ml, F(ab) at 10 µg/ml; SD 0.32, N 3.
Test [3] shares this target. As to the kind of experiment: ELISA, IFN-α coated at 0.1 µg/ml, F(ab) at 10 µg/ml; SD 0.00, N 3. Background: In an ELISA, binding on a coated surface is turned into a signal by an enzyme label.
The target is the same in test [4]. As to the kind of experiment: Kinexa.
Test [5] shares this target. As to the kind of experiment: ELISA, IFN-α coated at 0.1 µg/ml, F(ab) at 10 µg/ml; SD 0.05, N 3.
Test [6] addresses leukocyte interferon (Sigma Product No. 1-2396): heterogeneous collection of IFN-α subtypes produced by activated leukocytes. As to the kind of experiment: cell-based or functional assay.
The target in test [7] is IFN-α (subtype not stated; antigen of the ELISA, BIAcore and Kinexa assays of Example 2) (human). In words: Kinexa. The source holds these as a separate data set.

Substitutions are numbered along the chain they refer to. A value given as a limit tells only on which side of the number the result lay.

B1: humanized 9F3 F(ab) version F-11 (Fab, V domains shown)
VH: EVQLVESGGGLVQPGGSLRLSCATSGYTFTEYIIHWVRQAPGKGLEWVASINPDYDITNYNQRFKGRFTISLDKSSNTAYLQMNSLRAEDTAVYYCASWISDFFDYWGQGTLVTVSS
VL: DIQMTQSPSSLSASVGDRVTITCRASQSVSTSSYSYMHWYQQKPGKAPKLLIYYASNLESGVPSRFSGSGSGTDFTLTISSLQPEDFATYYCQHSWGIPRTFGQGTKVEIK
Turning to B1, in test [1], the OD450 nm at 10 µg/ml (mean) was 0.642 OD450 nm.

B2: humanized 9F3 F(ab) version F-14 (Fab, V domains shown)
VH: B1 VH with L72R, S76K, N77R
VL: B1 VL with L50V, Y53S
In turn, B2 showed an OD450 nm at 10 µg/ml (mean) in test [1] of 0.472 OD450 nm.

B3: humanized 9F3 F(ab) version F-15 (Fab, V domains shown)
VH: B1 VH with K74N, S76K, N77R
VL: B1 VL with L50V, Y53S
As to B3, the OD450 nm at 10 µg/ml (mean) in test [2] came out at 0.868 OD450 nm.

B4: humanized 9F3 F(ab) version F-1 (Fab, V domains shown)
VH: B1 VH with T24A, L72R, K74N, S76K, A79L, S98R
VL: B1 VL
On to B4, for which the OD450 nm at 10 µg/ml (mean) in test [3] turned out to be 0.06 OD450 nm.

B5: humanized recombinant anti-IFN-α monoclonal antibody V13IgG2 (antibody, V domains shown)
VH: B1 VH with S76K, N77R
VL: DIQMTQSPSSLSASVGDRVTITCRASQSVSTSSYSYMHWYQQKPGKAPKVLISYASNLESGVPSRFSGSGSGTDFTLTISSLQPEDFATYYCQHSWGIPRTFGQGTKVEIKR
For B5, in test [4], the fold reduction of affinity against the parental murine 9F3 antibody was 2 fold.

B6: humanized 9F3 F(ab) version F-12 (Fab, V domains shown)
VH: B1 VH with S76K, N77R
VL: B1 VL
With B6, the OD450 nm at 10 µg/ml (mean) in test [5] was determined as 0.912 OD450 nm.

B7: murine anti-human IFN-α monoclonal antibody 9F3 (antibody, IgG2, V domains shown)
VL: DIVLTQSPASLAVSLGQRATISCRASQSVSTSSYSYMHWYQQKPGQPPKVLISYASNLESGVPARFSGSGSGTDFTLNIHPVEEGDTATYFCQHSWGIPRTFGAGTKLELRRAV
VH: EVQLQQSGPELVKPGASVKISCKTSGYTFTEYIIHWVKQGHGRSLEWIGSINPDYDITNYNQRFKGKATLTLDKSSRTAYLELRSLTSEDSAVYYCASWISDFFDYWGQGTTLMVSAAS
Take B7: the neutralization of anti-viral activity (EMC virus, A549 cells; 10 µg/ml mAb) in test [6] is over 95%. In test [7], this molecule came in with a Kd of 1.5 pM.

In general, Kd refers to the constant that tells how readily two partners part at equilibrium. The low end stands for a tighter complex, the high end for a looser complex.

The values are drawn from patent US20130084295A1.
